IntAct's records for PubMed 23954233

B1: F-box DNA helicase 1 (Homo sapiens), Q8NFZ0 (parent)
chain: MRRFKRKHLTAIDCQHLARSHLAVTQPFGQRWTNRDPNHGLYPKPRTKRGSRGQGSQRCIPEFFLAGKQPCTNDMAKSNSVGQDSCQDSEGDMIFPAESSCALPQEGSAGPGSPGSAPPSRKRSWSSEEESNQATGTSRWDGVSKKAPRHHLSVPCTRPREARQEAEDSTSRLSAESGETDQDAGDVGPDPIPDSYYGLLGTLPCQEALSHICSLPSEVLRHVFAFLPVEDLYWNLSLVCHLWREIISDPLFIPWKKLYHRYLMNEEQAVSKVDGILSNCGIEKESDLCVLNLIRYTATTKCSPSVDPERVLWSLRDHPLLPEAEACVRQHLPDLYAAAGGVNIWALVAAVVLLSSSVNDIQRLLFCLRRPSSTVTMPDVTETLYCIAVLLYAMREKGINISNRIHYNIFYCLYLQENSCTQATKVKEEPSVWPGKKTIQLTHEQQLILNHKMEPLQVVKIMAFAGTGKTSTLVKYAEKWSQSRFLYVTFNKSIAKQAERVFPSNVICKTFHSMAYGHIGRKYQSKKKLNLFKLTPFMVNSVLAEGKGGFIRAKLVCKTLENFFASADEELTIDHVPIWCKNSQGQRVMVEQSEKLNGVLEASRLWDNMRKLGECTEEAHQMTHDGYLKLWQLSKPSLASFDAIFVDEAQDCTPAIMNIVLSQPCGKIFVGDPHQQIYTFRGAVNALFTVPHTHVFYLTQSFRFGVEIAYVGATILDVCKRVRKKTLVGGNHQSGIRGDAKGQVALLSRTNANVFDEAVRVTEGEFPSRIHLIGGIKSFGLDRIIDIWILLQPEEERRKQNLVIKDKFIRRWVHKEGFSGFKRYVTAAEDKELEAKIAVVEKYNIRIPELVQRIEKCHIEDLDFAEYILGTVHKAKGLEFDTVHVLDDFVKVPCARHNLPQLPHFRVESFSEDEWNLLYVAVTRAKKRLIMTKSLENILTLAGEYFLQAELTSNVLKTGVVRCCVGQCNNAIPVDTVLTMKKLPITYSNRKENKGGYLCHSCAEQRIGPLAFLTASPEQVRAMERTVENIVLPRHEALLFLVF

Variants of: B1
Conditions: with src_human SRC

| Variant | effect of a mutation on the interaction |
| --- | --- |
| I1030F | disrupting interaction |

Variants of: B1
Conditions: with src_human SRC
Remark: another data set of the same source

| Variant | effect of a mutation on the interaction |
| --- | --- |
| G774R | decreasing interaction |
